The record followed here is patent publication US20210309732A1 (ELIXIRON IMMUNOTHERAPEUTICS HONG KONG, published 2021).

The chains are these.
B1: 1D2 SDR mutant HK32D (antibody, IgG1, V domains shown)
VH: QVQLVQSGAEVKKPGASVKVSCEASGYTFTDDYLHWVRQAPGQGLEWMAWINPKSGGTFYAQNFKGRVTVTRDTSINTAYLELTSLRLDDTSTYYCARGRDYYDQGAADLWGQGTMVTVSS
VL: DIQLTQSPSSLSASVGDRVTITCRASQGINSVLAWYQQKPGKAPKLLLYAASKLESGVPSRFSGSGSGTDYTLTISSLQPEDFGTYYCQQYYSPVRTFGQGTKVEIKR
notes: also called X2 D
B2: 1D2 SDR mutant HK32S (antibody, IgG1, V domains shown)
VH: QVQLVQSGAEVKKPGASVKVSCEASGYTFTDSYLHWVRQAPGQGLEWMAWINPKSGGTFYAQNFKGRVTVTRDTSINTAYLELTSLRLDDTSTYYCARGRDYYDQGAADLWGQGTMVTVSS
VL: DIQLTQSPSSLSASVGDRVTITCRASQGINSVLAWYQQKPGKAPKLLLYAASKLESGVPSRFSGSGSGTDYTLTISSLQPEDFGTYYCQQYYSPVRTFGQGTKVEIKR
notes: also called X2 S
B3: 1D2 SDR mutant HK32N (antibody, IgG1, V domains shown)
VH: QVQLVQSGAEVKKPGASVKVSCEASGYTFTDNYLHWVRQAPGQGLEWMAWINPKSGGTFYAQNFKGRVTVTRDTSINTAYLELTSLRLDDTSTYYCARGRDYYDQGAADLWGQGTMVTVSS
VL: DIQLTQSPSSLSASVGDRVTITCRASQGINSVLAWYQQKPGKAPKLLLYAASKLESGVPSRFSGSGSGTDYTLTISSLQPEDFGTYYCQQYYSPVRTFGQGTKVEIKR
notes: also called X2 N
B4: 1D2 SDR mutant HK32E (antibody, IgG1, V domains shown)
VH: QVQLVQSGAEVKKPGASVKVSCEASGYTFTDEYLHWVRQAPGQGLEWMAWINPKSGGTFYAQNFKGRVTVTRDTSINTAYLELTSLRLDDTSTYYCARGRDYYDQGAADLWGQGTMVTVSS
VL: DIQLTQSPSSLSASVGDRVTITCRASQGINSVLAWYQQKPGKAPKLLLYAASKLESGVPSRFSGSGSGTDYTLTISSLQPEDFGTYYCQQYYSPVRTFGQGTKVEIKR
notes: also called X2 E
B5: 1D2 SDR mutant HK32L (antibody, IgG1, V domains shown)
VH: QVQLVQSGAEVKKPGASVKVSCEASGYTFTDLYLHWVRQAPGQGLEWMAWINPKSGGTFYAQNFKGRVTVTRDTSINTAYLELTSLRLDDTSTYYCARGRDYYDQGAADLWGQGTMVTVSS
VL: DIQLTQSPSSLSASVGDRVTITCRASQGINSVLAWYQQKPGKAPKLLLYAASKLESGVPSRFSGSGSGTDYTLTISSLQPEDFGTYYCQQYYSPVRTFGQGTKVEIKR
notes: also called X2 L
B6: 1D2 SDR mutant HK32H (antibody, IgG1, V domains shown)
VH: QVQLVQSGAEVKKPGASVKVSCEASGYTFTDHYLHWVRQAPGQGLEWMAWINPKSGGTFYAQNFKGRVTVTRDTSINTAYLELTSLRLDDTSTYYCARGRDYYDQGAADLWGQGTMVTVSS
VL: DIQLTQSPSSLSASVGDRVTITCRASQGINSVLAWYQQKPGKAPKLLLYAASKLESGVPSRFSGSGSGTDYTLTISSLQPEDFGTYYCQQYYSPVRTFGQGTKVEIKR
notes: also called X2 H
B7: 1D2 SDR mutant HK32F (antibody, IgG1, V domains shown)
VH: QVQLVQSGAEVKKPGASVKVSCEASGYTFTDFYLHWVRQAPGQGLEWMAWINPKSGGTFYAQNFKGRVTVTRDTSINTAYLELTSLRLDDTSTYYCARGRDYYDQGAADLWGQGTMVTVSS
VL: DIQLTQSPSSLSASVGDRVTITCRASQGINSVLAWYQQKPGKAPKLLLYAASKLESGVPSRFSGSGSGTDYTLTISSLQPEDFGTYYCQQYYSPVRTFGQGTKVEIKR
notes: also called X2 F
B8: 1D2 SDR mutant HK54C (antibody, IgG1, V domains shown)
VH: QVQLVQSGAEVKKPGASVKVSCEASGYTFTDKYLHWVRQAPGQGLEWMAWINPCSGGTFYAQNFKGRVTVTRDTSINTAYLELTSLRLDDTSTYYCARGRDYYDQGAADLWGQGTMVTVSS
VL: DIQLTQSPSSLSASVGDRVTITCRASQGINSVLAWYQQKPGKAPKLLLYAASKLESGVPSRFSGSGSGTDYTLTISSLQPEDFGTYYCQQYYSPVRTFGQGTKVEIKR
notes: also called X3 C
B9: 1D2 SDR mutant HK32V (antibody, IgG1, V domains shown)
VH: QVQLVQSGAEVKKPGASVKVSCEASGYTFTDVYLHWVRQAPGQGLEWMAWINPKSGGTFYAQNFKGRVTVTRDTSINTAYLELTSLRLDDTSTYYCARGRDYYDQGAADLWGQGTMVTVSS
VL: DIQLTQSPSSLSASVGDRVTITCRASQGINSVLAWYQQKPGKAPKLLLYAASKLESGVPSRFSGSGSGTDYTLTISSLQPEDFGTYYCQQYYSPVRTFGQGTKVEIKR
notes: also called X2 V
B10: 1D2 SDR mutant HK54E (antibody, IgG1, V domains shown)
VH: QVQLVQSGAEVKKPGASVKVSCEASGYTFTDKYLHWVRQAPGQGLEWMAWINPESGGTFYAQNFKGRVTVTRDTSINTAYLELTSLRLDDTSTYYCARGRDYYDQGAADLWGQGTMVTVSS
VL: DIQLTQSPSSLSASVGDRVTITCRASQGINSVLAWYQQKPGKAPKLLLYAASKLESGVPSRFSGSGSGTDYTLTISSLQPEDFGTYYCQQYYSPVRTFGQGTKVEIKR
notes: also called X3 E
B11: 1D2 SDR mutant HK32Q (antibody, IgG1, V domains shown)
VH: QVQLVQSGAEVKKPGASVKVSCEASGYTFTDQYLHWVRQAPGQGLEWMAWINPKSGGTFYAQNFKGRVTVTRDTSINTAYLELTSLRLDDTSTYYCARGRDYYDQGAADLWGQGTMVTVSS
VL: DIQLTQSPSSLSASVGDRVTITCRASQGINSVLAWYQQKPGKAPKLLLYAASKLESGVPSRFSGSGSGTDYTLTISSLQPEDFGTYYCQQYYSPVRTFGQGTKVEIKR
notes: also called X2 Q
B12: 1D2 SDR mutant HK54A (antibody, IgG1, V domains shown)
VH: QVQLVQSGAEVKKPGASVKVSCEASGYTFTDKYLHWVRQAPGQGLEWMAWINPASGGTFYAQNFKGRVTVTRDTSINTAYLELTSLRLDDTSTYYCARGRDYYDQGAADLWGQGTMVTVSS
VL: DIQLTQSPSSLSASVGDRVTITCRASQGINSVLAWYQQKPGKAPKLLLYAASKLESGVPSRFSGSGSGTDYTLTISSLQPEDFGTYYCQQYYSPVRTFGQGTKVEIKR
notes: also called X3 A
B13: 1D2 SDR mutant HK32T (antibody, IgG1, V domains shown)
VH: QVQLVQSGAEVKKPGASVKVSCEASGYTFTDTYLHWVRQAPGQGLEWMAWINPKSGGTFYAQNFKGRVTVTRDTSINTAYLELTSLRLDDTSTYYCARGRDYYDQGAADLWGQGTMVTVSS
VL: DIQLTQSPSSLSASVGDRVTITCRASQGINSVLAWYQQKPGKAPKLLLYAASKLESGVPSRFSGSGSGTDYTLTISSLQPEDFGTYYCQQYYSPVRTFGQGTKVEIKR
notes: also called X2 T
B14: 1D2 SDR mutant HK32P (antibody, IgG1, V domains shown)
VH: QVQLVQSGAEVKKPGASVKVSCEASGYTFTDPYLHWVRQAPGQGLEWMAWINPKSGGTFYAQNFKGRVTVTRDTSINTAYLELTSLRLDDTSTYYCARGRDYYDQGAADLWGQGTMVTVSS
VL: DIQLTQSPSSLSASVGDRVTITCRASQGINSVLAWYQQKPGKAPKLLLYAASKLESGVPSRFSGSGSGTDYTLTISSLQPEDFGTYYCQQYYSPVRTFGQGTKVEIKR
notes: also called X2 P
B15: 1D2 SDR mutant HK32R (antibody, V domains shown)
VH: QVQLVQSGAEVKKPGASVKVSCEASGYTFTDRYLHWVRQAPGQGLEWMAWINPKSGGTFYAQNFKGRVTVTRDTSINTAYLELTSLRLDDTSTYYCARGRDYYDQGAADLWGQGTMVTVSS
VL: DIQLTQSPSSLSASVGDRVTITCRASQGINSVLAWYQQKPGKAPKLLLYAASKLESGVPSRFSGSGSGTDYTLTISSLQPEDFGTYYCQQYYSPVRTFGQGTKVEIKR
notes: not the clone labelled 32R, which is light chain V32R; also called X2 R

The test deals with T1, recombinant human GM-CSF (human, UniProt P04141 18-144).
T1 construct: also called rhGM-CSF; CSF2
T1 sequence (P04141 18-144 limits assumed): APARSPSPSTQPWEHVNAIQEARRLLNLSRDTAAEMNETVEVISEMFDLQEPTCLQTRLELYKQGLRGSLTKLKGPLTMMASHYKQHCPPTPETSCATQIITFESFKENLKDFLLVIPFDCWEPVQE
Nature of the test: ELISA on coated rhGM-CSF, UBA relative to 1D2. From the text: Some of the residues in the CDRs are essential for epitope binding affinity and/or specificity. A number of computational methods were developed to detect these functional residues, generally known as ‘specificity-determining resides’ (SDRs). […] Based on the analysis, 7 amino acid residues in VH and 3 amino acid residues in VL were selected as the SDRs. The residues are labeled X₁ to X₁₀ for the ease of reference. The SDRs on VH are: Heavy chain D31 (HD31) (X₁), HK32 (X₂), HK54(X₃), HR100 (X₄), HY102 (X₅), HY103 (X₆) and HQ105 (X₇). The SDRs on VL are Light chain V32 (LV32) (X₈), LP94 (X₉) and LV95 (X₁₀). The SDRs were subsequently mutated by site-directed mutagenesis to other amino acids to generate mutant VH or VL clones. HEK293 cells were co-transfected with a vector encoding a mutant VH paired with a vector encoding a wild type VL or a vector encoding a wild type VH paired with a vector encoding a mutant VL. The antibody clones were harvested from the culture medium. The binding affinity of each antibody clone to human GM-CSF was tested by ELISA. The ELISA was done according to the following procedures. ELISA plate was coated with 50 μl of rhGM-CSF at 1 μg/mL. The plate was washed with 200 μl PBST for three times, followed by blocking with 1% BSA for 1 hour at room temperature. The antibody clones to be tested were diluted at 1:12000. 100 μl of the diluted antibodies were added to the cell at 100 μl/well. The plate was incubated at room temperature for 1 hour. The plate was then washed and incubated with 1:5000 diluted goat-anti-human secondary antibody conjugated with HRP at room temperature for one hour. The ELISA assay was developed with 100 μl developing buffer containing H₂O₂-Amplx Red per well in the dark for 5 min and the fluorescence intensity was read at Ex.530/Em.590 nm, with cutoff at 570 nm. The Unit Binding Activity (UBA) of each sample was calculated as the fluorescence signal/antibody clone dilution factor.
(ELISA stands for enzyme-linked immunosorbent assay.)
As to B1, the “binding affinity % of 1D2” value was 90%. Next, B2: 78%; B3: 97%; B4: 94%. Next, B5: 60%. With B6, the “binding affinity % of 1D2” value amounted to 76%. Next, B7: 63%; B8: 76%. Then B9, with 90%. Next, B10: 113%; B11: 91%. For B12, the “binding affinity % of 1D2” value was found to be 117%. Next, B13: 74%; B14: 88%. Next, B15: 90%.
